From patent US20140193378A1 (UNIVERSITY OF MIAMI, published 2014)
Non-standard residues stand in square brackets, D forms with d. No end group written: not given here. *: point of attachment. Phe(F5) = N[C@@H](Cc1c(F)c(F)c(F)c(F)c1F)C(=O)O; Desaminotyrosyl = O=C(CCc1ccc(O)cc1)*; NMeY = CN[C@@H](Cc1ccc(O)cc1)C(=O)O; Agmatine = N=C(N)NCCCCN*; NMeA = CN[C@@H](C)C(=O)O; Nle = CCCC[C@H](N)C(=O)O; Orn = NCCC[C@H](N)C(=O)O; Abu = CC[C@H](N)C(=O)O; Ava = NCCCCC(=O)O; GABA = NCCCC(=O)O

T1: human GHRH receptor (human pituitary membrane homogenates) (human, UniProt Q02643 23-423)
T1 construct: whole, on cells; Native receptor in human pituitary membrane homogenates, not on intact cells; also called hGHRH receptor
T1 sequence (looked up): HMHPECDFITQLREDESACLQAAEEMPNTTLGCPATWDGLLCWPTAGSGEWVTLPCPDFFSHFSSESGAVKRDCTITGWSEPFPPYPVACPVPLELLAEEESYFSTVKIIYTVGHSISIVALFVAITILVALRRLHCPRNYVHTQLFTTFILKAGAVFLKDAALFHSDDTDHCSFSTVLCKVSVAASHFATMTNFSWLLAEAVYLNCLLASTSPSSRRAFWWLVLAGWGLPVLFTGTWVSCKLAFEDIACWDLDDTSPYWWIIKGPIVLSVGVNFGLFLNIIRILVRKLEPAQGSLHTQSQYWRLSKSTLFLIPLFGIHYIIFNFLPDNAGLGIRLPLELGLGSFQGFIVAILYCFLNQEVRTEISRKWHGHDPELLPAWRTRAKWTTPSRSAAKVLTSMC

B1: P-20357 [Dat^1, D-Ala^2, N-Me-Ala^8, Orn^12, Abu^15, Orn^21, Nle^27, Asp^28, Agm^29]hGHRH(1-29)NH2 (peptide)
peptide: [Desaminotyrosyl][dA]DAIFT[NMeA]SYR[Orn]VL[Abu]QLSAR[Orn]LLQDI[Nle]D[Agmatine]
SMILES: CCCC[C@H](NC(=O)[C@@H](NC(=O)[C@H](CC(=O)O)NC(=O)[C@H](CCC(N)=O)NC(=O)[C@H](CC(C)C)NC(=O)[C@H](CC(C)C)NC(=O)[C@H](CCCN)NC(=O)[C@H](CCCNC(=N)N)NC(=O)[C@H](C)NC(=O)[C@H](CO)NC(=O)[C@H](CC(C)C)NC(=O)[C@H](CCC(N)=O)NC(=O)[C@H](CC)NC(=O)[C@H](CC(C)C)NC(=O)[C@@H](NC(=O)[C@H](CCCN)NC(=O)[C@H](CCCNC(=N)N)NC(=O)[C@H](Cc1ccc(O)cc1)NC(=O)[C@H](CO)NC(=O)[C@H](C)N(C)C(=O)[C@@H](NC(=O)[C@H](Cc1ccccc1)NC(=O)[C@@H](NC(=O)[C@H](C)NC(=O)[C@H](CC(=O)O)NC(=O)[C@@H](C)NC(=O)CCc1ccc(O)cc1)[C@@H](C)CC)[C@@H](C)O)C(C)C)[C@@H](C)CC)C(=O)N[C@@H](CC(=O)O)C(=O)NCCCCNC(=N)N
notes: also called Peptide 20357
B2: P-27400 [Dat^1, D-Ala^2, Orn^12, Abu^15, Orn^21, Nle^27, Asp^28]hGHRH(1-29)NH-CH3 (peptide)
peptide: [Desaminotyrosyl][dA]DAIFTNSYR[Orn]VL[Abu]QLSAR[Orn]LLQDI[Nle]DR-NHMe
SMILES: CCCC[C@H](NC(=O)[C@@H](NC(=O)[C@H](CC(=O)O)NC(=O)[C@H](CCC(N)=O)NC(=O)[C@H](CC(C)C)NC(=O)[C@H](CC(C)C)NC(=O)[C@H](CCCN)NC(=O)[C@H](CCCNC(=N)N)NC(=O)[C@H](C)NC(=O)[C@H](CO)NC(=O)[C@H](CC(C)C)NC(=O)[C@H](CCC(N)=O)NC(=O)[C@H](CC)NC(=O)[C@H](CC(C)C)NC(=O)[C@@H](NC(=O)[C@H](CCCN)NC(=O)[C@H](CCCNC(=N)N)NC(=O)[C@H](Cc1ccc(O)cc1)NC(=O)[C@H](CO)NC(=O)[C@H](CC(N)=O)NC(=O)[C@@H](NC(=O)[C@H](Cc1ccccc1)NC(=O)[C@@H](NC(=O)[C@H](C)NC(=O)[C@H](CC(=O)O)NC(=O)[C@@H](C)NC(=O)CCc1ccc(O)cc1)[C@@H](C)CC)[C@@H](C)O)C(C)C)[C@@H](C)CC)C(=O)N[C@@H](CC(=O)O)C(=O)N[C@@H](CCCNC(=N)N)C(=O)NC
B3: P-22326 [N-Me-Tyr^1, D-Ala^2, Gln^8, Orn^12, Abu^15, Orn^21, Nle^27, Asp^28, Apa^30]hGHRH(1-30)NH2 (peptide)
peptide: [NMeY][dA]DAIFTQSYR[Orn]VL[Abu]QLSAR[Orn]LLQDI[Nle]DR[Ava]-NH2
modifications: N-terminus assumed
SMILES: CCCC[C@H](NC(=O)[C@@H](NC(=O)[C@H](CC(=O)O)NC(=O)[C@H](CCC(N)=O)NC(=O)[C@H](CC(C)C)NC(=O)[C@H](CC(C)C)NC(=O)[C@H](CCCN)NC(=O)[C@H](CCCNC(=N)N)NC(=O)[C@H](C)NC(=O)[C@H](CO)NC(=O)[C@H](CC(C)C)NC(=O)[C@H](CCC(N)=O)NC(=O)[C@H](CC)NC(=O)[C@H](CC(C)C)NC(=O)[C@@H](NC(=O)[C@H](CCCN)NC(=O)[C@H](CCCNC(=N)N)NC(=O)[C@H](Cc1ccc(O)cc1)NC(=O)[C@H](CO)NC(=O)[C@H](CCC(N)=O)NC(=O)[C@@H](NC(=O)[C@H](Cc1ccccc1)NC(=O)[C@@H](NC(=O)[C@H](C)NC(=O)[C@H](CC(=O)O)NC(=O)[C@@H](C)NC(=O)[C@H](Cc1ccc(O)cc1)NC)[C@@H](C)CC)[C@@H](C)O)C(C)C)[C@@H](C)CC)C(=O)N[C@@H](CC(=O)O)C(=O)N[C@@H](CCCNC(=N)N)C(=O)NCCCCC(N)=O
notes: also called Peptide 22326
B4: P-25501 [N-Me-Tyr^1, D-Ala^2, Orn^12, Abu^15, Orn^21, Nle^27, Gab^30]hGHRH(1-30)NH2 (peptide)
peptide: [NMeY][dA]DAIFTNSYR[Orn]VL[Abu]QLSAR[Orn]LLQDI[Nle]SR[GABA]-NH2
modifications: N-terminus assumed
SMILES: CCCC[C@H](NC(=O)[C@@H](NC(=O)[C@H](CC(=O)O)NC(=O)[C@H](CCC(N)=O)NC(=O)[C@H](CC(C)C)NC(=O)[C@H](CC(C)C)NC(=O)[C@H](CCCN)NC(=O)[C@H](CCCNC(=N)N)NC(=O)[C@H](C)NC(=O)[C@H](CO)NC(=O)[C@H](CC(C)C)NC(=O)[C@H](CCC(N)=O)NC(=O)[C@H](CC)NC(=O)[C@H](CC(C)C)NC(=O)[C@@H](NC(=O)[C@H](CCCN)NC(=O)[C@H](CCCNC(=N)N)NC(=O)[C@H](Cc1ccc(O)cc1)NC(=O)[C@H](CO)NC(=O)[C@H](CC(N)=O)NC(=O)[C@@H](NC(=O)[C@H](Cc1ccccc1)NC(=O)[C@@H](NC(=O)[C@H](C)NC(=O)[C@H](CC(=O)O)NC(=O)[C@@H](C)NC(=O)[C@H](Cc1ccc(O)cc1)NC)[C@@H](C)CC)[C@@H](C)O)C(C)C)[C@@H](C)CC)C(=O)N[C@@H](CO)C(=O)N[C@@H](CCCNC(=N)N)C(=O)NCCCC(N)=O
notes: also called Peptide 25501
B5: P-27401 [Dat^1, D-Ala^2, Gln^8, Orn^12, Abu^15, Orn^21, Nle^27, Asp^28, D-Arg^29]hGHRH(1-29)NH-CH3 (peptide)
peptide: [Desaminotyrosyl][dA]DAIFTQSYR[Orn]VL[Abu]QLSAR[Orn]LLQDI[Nle]D[dR]-NHMe
SMILES: CCCC[C@H](NC(=O)[C@@H](NC(=O)[C@H](CC(=O)O)NC(=O)[C@H](CCC(N)=O)NC(=O)[C@H](CC(C)C)NC(=O)[C@H](CC(C)C)NC(=O)[C@H](CCCN)NC(=O)[C@H](CCCNC(=N)N)NC(=O)[C@H](C)NC(=O)[C@H](CO)NC(=O)[C@H](CC(C)C)NC(=O)[C@H](CCC(N)=O)NC(=O)[C@H](CC)NC(=O)[C@H](CC(C)C)NC(=O)[C@@H](NC(=O)[C@H](CCCN)NC(=O)[C@H](CCCNC(=N)N)NC(=O)[C@H](Cc1ccc(O)cc1)NC(=O)[C@H](CO)NC(=O)[C@H](CCC(N)=O)NC(=O)[C@@H](NC(=O)[C@H](Cc1ccccc1)NC(=O)[C@@H](NC(=O)[C@H](C)NC(=O)[C@H](CC(=O)O)NC(=O)[C@@H](C)NC(=O)CCc1ccc(O)cc1)[C@@H](C)CC)[C@@H](C)O)C(C)C)[C@@H](C)CC)C(=O)N[C@@H](CC(=O)O)C(=O)N[C@H](CCCNC(=N)N)C(=O)NC
B6: P-27408 [Dat^1, D-Ala^2, Gln^8, Orn^12, Abu^15, Orn^21, Nle^27, Asp^28]hGHRH(1-29)NH-CH3 (peptide)
peptide: [Desaminotyrosyl][dA]DAIFTQSYR[Orn]VL[Abu]QLSAR[Orn]LLQDI[Nle]DR-NHMe
SMILES: CCCC[C@H](NC(=O)[C@@H](NC(=O)[C@H](CC(=O)O)NC(=O)[C@H](CCC(N)=O)NC(=O)[C@H](CC(C)C)NC(=O)[C@H](CC(C)C)NC(=O)[C@H](CCCN)NC(=O)[C@H](CCCNC(=N)N)NC(=O)[C@H](C)NC(=O)[C@H](CO)NC(=O)[C@H](CC(C)C)NC(=O)[C@H](CCC(N)=O)NC(=O)[C@H](CC)NC(=O)[C@H](CC(C)C)NC(=O)[C@@H](NC(=O)[C@H](CCCN)NC(=O)[C@H](CCCNC(=N)N)NC(=O)[C@H](Cc1ccc(O)cc1)NC(=O)[C@H](CO)NC(=O)[C@H](CCC(N)=O)NC(=O)[C@@H](NC(=O)[C@H](Cc1ccccc1)NC(=O)[C@@H](NC(=O)[C@H](C)NC(=O)[C@H](CC(=O)O)NC(=O)[C@@H](C)NC(=O)CCc1ccc(O)cc1)[C@@H](C)CC)[C@@H](C)O)C(C)C)[C@@H](C)CC)C(=O)N[C@@H](CC(=O)O)C(=O)N[C@@H](CCCNC(=N)N)C(=O)NC
notes: also called Peptide 27408

molecular target: T1, human GHRH receptor (human pituitary …); assay: radioligand competition vs 125I-JV-1-42 (0.2 nM), human pituitary membranes
Text: Normal human pituitaries were purchased from the National Hormone and Peptide Program (A. F. Parlow, Los Angeles, County Harbor-UCLA Medical Center, Torrance, Calif.).

Binder	Relative affinity (Binding potency) vs JI-38 [fold]
B1	5.06
[NMeY][dA]DAIFTNSYR[Orn]VL[Abu]QLSAR[Orn]LLQDI[Nle]DR-NHMe (also called Peptide 27409; MR-409) [P-27409 [N-Me-Tyr^1, D-Ala^2, Orn^12, Abu^15, Orn^21, Nle^27, Asp^28]hGHRH(1-29)NH-CH3]	4.1
[NMeY][dA]DAIFTTSYR[Orn]VL[Abu]QLSAR[Orn]LLQDI[Nle]DR-NHMe (also called Peptide 27410) [P-27410 [N-Me-Tyr^1, D-Ala^2, Thr^8, Orn^12, Abu^15, Orn^21, Nle^27, Asp^28]hGHRH(1-29)NH-CH3]	5.24
B2	1.3
[NMeY][dA]DAIFTNSYR[Orn]VL[Abu]QLSAR[Orn]LLQDI[Nle]D[Agmatine] (also called Peptide 20367) [P-20367 [N-Me-Tyr^1, D-Ala^2, Orn^12, Abu^15, Orn^21, Nle^27, Asp^28, Agm^29]hGHRH(1-29)NH2]	2.56
[NMeY][dA]DAIFTNSYR[Orn]VL[Abu]QLSAR[Orn]LLQDI[Nle]DR-NHEt (also called Peptide 28421) [P-28421 [N-Me-Tyr^1, D-Ala^2, Orn^12, Abu^15, Orn^21, Nle^27, Asp^28]hGHRH(1-29)NH-CH2-CH3]	2.96
[NMeY][dA]DAI[Phe(F5)]TNSYR[Orn]VL[Abu]QLSAR[Orn]LLQDI[Nle]D[Agmatine] (also called Peptide 20359) [P-20359 [N-Me-Tyr^1, D-Ala^2, Fpa5^6, Orn^12, Abu^15, Orn^21, Nle^27, Asp^28, Agm^29]hGHRH(1-29)NH2]	1.43
[NMeY][dA]DAI[Phe(F5)]TNSYR[Orn]VL[Abu]QLSAR[Orn]LLQDI[Nle]DR-NHMe [P-27404 [N-Me-Tyr^1, D-Ala^2, Fpa5^6, Orn^12, Abu^15, Orn^21, Nle^27, Asp^28]hGHRH(1-29)NH-CH3]	5
B3	6.12
[NMeY][dA]DAI[Phe(F5)]TNSYR[Orn]VL[Abu]QLSAR[Orn]LLQDI[Nle]SR[GABA]-NHMe (also called Peptide 27414) [P-27414 [N-Me-Tyr^1, D-Ala^2, Fpa5^6, Orn^12, Abu^15, Orn^21, Nle^27, Gab^30]hGHRH(1-30)NH-CH3]	2.79
B4	4.07
[NMeY][dA]DAIFTQSYR[Orn]VL[Abu]QLSAR[Orn]LLQDI[Nle]DR-NHEt (also called Peptide 28420) [P-28420 [N-Me-Tyr^1, D-Ala^2, Gln^8, Orn^12, Abu^15, Orn^21, Nle^27, Asp^28]hGHRH(1-29)NH-CH2-CH3]	8.37
B5	1.59
[NMeY][dA]DAIFTQSYR[Orn]VL[Abu]QLSAR[Orn]LLQDI[Nle]DR-NHMe [P-27403 [N-Me-Tyr^1, D-Ala^2, Gln^8, Orn^12, Abu^15, Orn^21, Nle^27, Asp^28]hGHRH(1-29)NH-CH3]	27.2
B6	7.91
